Here are results for 2 molecules from patent US10442866 (BEIJING MABWORKS BIOTECH, dated 2019).

Assay [1] concerns the target T1, recombinant human OX40-his (Sino Biological, Cat#:10481-H03H) (human, UniProt P43489 29-214).
T1 construct: bought protein; also called hOX40-his; not shown: His tag
T1 sequence: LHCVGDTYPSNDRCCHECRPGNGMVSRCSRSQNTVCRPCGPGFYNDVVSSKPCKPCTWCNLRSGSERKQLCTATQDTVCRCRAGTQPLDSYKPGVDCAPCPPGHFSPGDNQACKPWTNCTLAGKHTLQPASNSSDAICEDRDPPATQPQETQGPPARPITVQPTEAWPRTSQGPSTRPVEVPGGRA
In words: SPR Biacore 8K, OX40-His on chip, antibody injected.

In assay [2] the target is T2, human CD40-his (TNFRSF5, Sino Biological, Cat#:10774-H08H) (human, UniProt P25942 21-193).
T2 construct: bought protein; also called recombinant human CD40 (TNFRSF5); not shown: His tag
T2 sequence (P25942 21-193 limits assumed): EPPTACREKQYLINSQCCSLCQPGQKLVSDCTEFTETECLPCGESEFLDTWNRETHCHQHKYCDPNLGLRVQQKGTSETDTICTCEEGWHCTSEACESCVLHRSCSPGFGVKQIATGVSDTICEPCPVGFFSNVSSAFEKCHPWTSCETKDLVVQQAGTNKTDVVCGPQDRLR
In words: ELISA on coated recombinant human TNFRSF protein, OD450. On the procedure:
(§1) ELISA assays were performed to determine the binding specificity of anti-OX40 antibodies to human OX40, in comparison to other human TNFRSF members with homologous amino acid sequences, following the protocol described in Example 2.

In assay [3] the target is T3, human HVEM-mFc (TNFRSF14, ACRO, Cat#: HVM-H5255) (human, UniProt Q92956 39-202).
T3 construct: bought protein; also called HVEM(TNFRSF14); not shown: mouse Fc (mFc)
T3 sequence (looked up): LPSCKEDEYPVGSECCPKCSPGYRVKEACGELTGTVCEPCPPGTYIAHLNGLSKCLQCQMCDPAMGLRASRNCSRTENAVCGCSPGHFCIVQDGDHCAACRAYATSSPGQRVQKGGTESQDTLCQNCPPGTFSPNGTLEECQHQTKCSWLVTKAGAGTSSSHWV
The description is as above. On the procedure: as §1

Assay [4] addresses T4, human 4-1BB (TNFRSF9, ACRO, Cat#:41B-H522a) (human, UniProt Q07011 24-186).
T4 construct: bought recombinant protein
Described as above. On the procedure: as §1

Assay [5] has as its target T5, human NGFR (TNFRSF16, Sino Biological, Cat#: 13184-H08H) (human, UniProt P08138 29-250).
T5 construct: bought recombinant protein
T5 sequence (looked up): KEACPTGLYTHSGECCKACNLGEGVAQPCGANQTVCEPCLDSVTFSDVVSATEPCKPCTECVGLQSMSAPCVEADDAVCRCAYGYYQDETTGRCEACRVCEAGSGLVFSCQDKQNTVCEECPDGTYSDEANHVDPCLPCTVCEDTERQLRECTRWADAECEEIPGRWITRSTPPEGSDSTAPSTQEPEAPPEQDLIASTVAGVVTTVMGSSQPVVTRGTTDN
Described as above. On the procedure:
as §1

Assay [6] addresses T6, human DR6 (TNFRSF21, Sino Biological, Cat#: 10175-H08H) (human, UniProt O75509 42-349).
T6 construct: bought recombinant protein
T6 sequence (looked up): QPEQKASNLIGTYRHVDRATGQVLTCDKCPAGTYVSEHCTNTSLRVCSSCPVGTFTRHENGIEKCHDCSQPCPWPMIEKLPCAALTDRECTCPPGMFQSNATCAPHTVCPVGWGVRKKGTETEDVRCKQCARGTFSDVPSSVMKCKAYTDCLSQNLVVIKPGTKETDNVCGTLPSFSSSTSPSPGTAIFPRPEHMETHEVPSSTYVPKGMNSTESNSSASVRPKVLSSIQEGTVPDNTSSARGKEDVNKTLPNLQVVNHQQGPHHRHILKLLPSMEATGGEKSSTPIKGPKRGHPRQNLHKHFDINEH
Described as above. On the procedure: as §1

The target of assay [7] is full length OX40 ECD-mFc (containing CRD1/2/3/4). In words: ELISA with recombinant mFc-tagged OX40 ECD proteins, OD450. The text has this: (§2) There are four individual cysteine enriched domains (CRD) in OX40 extracellular domain (ECD), namely CRD1, CRD2, CRD3 and CRD4, respectively. Based on the structure of OX40, four recombinant OX40 proteins were generated, i.e., the full-length OX40 ECD (containing CRD1/2/3/4) (SEQ ID NO.: 38), truncant 1-mFc (containing CRD2/3/4) (SEQ ID NO.: 39), truncant 2-mFc (containing CRD/3/4) (SEQ ID NO.: 40) and truncant 3-mFc (containing CRD/4) (SEQ ID NO.: 41). All the recombinant proteins were linked with a signal peptide (SEQ ID NO.: 42) at the N terminus for protein secretion and a mFc-tag (SEQ ID NO.: 43) at the C terminus for ELISA assay. DNA sequences were synthesized and subcloned into pcDNA3.1 vector. The expression and purification of the recombinant proteins were carried out according to the protocols in Example 10. ELISA assay was performed to assess binding capacity of mAbs to recombinant OX40 proteins, following the protocol in Example 2.
Chain of full length OX40 ECD-mFc (containing CRD1/2/3/4) (chain, as listed by the source limits assumed): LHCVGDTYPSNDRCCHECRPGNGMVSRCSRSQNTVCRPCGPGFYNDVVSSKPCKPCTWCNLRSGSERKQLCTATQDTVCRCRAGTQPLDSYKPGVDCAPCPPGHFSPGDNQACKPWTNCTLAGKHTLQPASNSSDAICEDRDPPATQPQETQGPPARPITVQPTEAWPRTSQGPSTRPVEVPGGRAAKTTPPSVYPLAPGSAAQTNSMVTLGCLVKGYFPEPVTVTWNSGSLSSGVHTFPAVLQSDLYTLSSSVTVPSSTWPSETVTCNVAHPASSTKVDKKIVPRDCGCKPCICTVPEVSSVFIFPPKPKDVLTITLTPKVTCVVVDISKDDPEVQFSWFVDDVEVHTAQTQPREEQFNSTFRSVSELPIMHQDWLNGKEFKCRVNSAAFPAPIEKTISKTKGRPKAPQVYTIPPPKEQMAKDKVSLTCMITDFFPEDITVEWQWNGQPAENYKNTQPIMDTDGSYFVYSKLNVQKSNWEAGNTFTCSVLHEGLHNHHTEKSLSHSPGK

The target in assay [8] is truncant 1-mFc (containing CRD2/3/4). The description is as above.
Chain of truncant 1-mFc (containing CRD2/3/4) (chain, as listed by the source limits assumed): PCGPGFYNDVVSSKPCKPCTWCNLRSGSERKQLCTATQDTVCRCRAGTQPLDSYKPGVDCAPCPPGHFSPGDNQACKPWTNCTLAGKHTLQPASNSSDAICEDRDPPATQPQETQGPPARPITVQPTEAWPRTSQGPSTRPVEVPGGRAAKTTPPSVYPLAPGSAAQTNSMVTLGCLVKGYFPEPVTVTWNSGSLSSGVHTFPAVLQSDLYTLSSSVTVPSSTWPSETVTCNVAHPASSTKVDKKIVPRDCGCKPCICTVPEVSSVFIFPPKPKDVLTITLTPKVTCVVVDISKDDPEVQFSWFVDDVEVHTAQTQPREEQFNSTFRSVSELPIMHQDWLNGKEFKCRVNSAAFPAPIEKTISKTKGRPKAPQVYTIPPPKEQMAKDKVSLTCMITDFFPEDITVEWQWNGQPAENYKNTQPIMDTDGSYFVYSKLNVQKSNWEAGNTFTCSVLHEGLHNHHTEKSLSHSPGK
Source text: as §2

Assay [9] addresses truncant 2-mFc (containing CRD/3/4). The assay is described as above.
Source text: as §2

Assay [10] has as its target truncant 3-mFc (containing CRD/4). The assay is described as above.
Source text: as §2

Chain of truncant 3-mFc (containing CRD/4) (chain, as listed by the source limits assumed): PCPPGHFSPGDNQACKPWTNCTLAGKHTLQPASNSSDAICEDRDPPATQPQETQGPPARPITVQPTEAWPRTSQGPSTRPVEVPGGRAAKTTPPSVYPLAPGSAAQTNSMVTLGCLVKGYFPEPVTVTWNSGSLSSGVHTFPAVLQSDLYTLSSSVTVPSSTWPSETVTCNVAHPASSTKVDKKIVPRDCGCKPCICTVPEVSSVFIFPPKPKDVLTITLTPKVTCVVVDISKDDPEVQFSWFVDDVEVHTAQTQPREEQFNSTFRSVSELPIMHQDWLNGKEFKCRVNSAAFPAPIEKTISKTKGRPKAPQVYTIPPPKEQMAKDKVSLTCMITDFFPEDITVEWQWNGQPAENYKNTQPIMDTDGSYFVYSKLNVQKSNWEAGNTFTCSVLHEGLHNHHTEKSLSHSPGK
Chain of truncant 2-mFc (containing CRD/3/4) (chain, as listed by the source limits assumed): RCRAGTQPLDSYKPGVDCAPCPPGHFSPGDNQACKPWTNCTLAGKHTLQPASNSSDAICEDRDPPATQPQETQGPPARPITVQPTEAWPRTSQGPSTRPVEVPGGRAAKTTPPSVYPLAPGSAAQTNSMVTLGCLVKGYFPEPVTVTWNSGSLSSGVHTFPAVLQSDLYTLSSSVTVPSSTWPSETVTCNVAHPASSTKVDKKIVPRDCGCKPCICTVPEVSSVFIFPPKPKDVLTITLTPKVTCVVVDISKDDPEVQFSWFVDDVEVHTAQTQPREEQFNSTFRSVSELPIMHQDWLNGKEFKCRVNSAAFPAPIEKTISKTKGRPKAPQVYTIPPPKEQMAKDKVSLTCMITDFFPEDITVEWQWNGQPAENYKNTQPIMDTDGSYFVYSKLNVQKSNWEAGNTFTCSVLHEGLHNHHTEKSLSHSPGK

B1: 68C8-VH2VL3 (antibody, human IgG1, kappa, V domains shown)
VH: QVQLVQSGAEVKKPGASVKVSCKVSGDTFTSYWITWVRQRPGKGLEWMGDIHPGSGSTNNNEKFKNRVTMTVDTSTDTAYMELSSLRSEDTAVYYCATLRPYYFVYWGQGTLVTVSS
VL: DIQMTQSPSSLSASVGDRVTITCRASQDISNYLNWYQQKPGKTVKLLIYYTSRLLSGVPSRFSGSGSGTDYTLTISSLQPEDFATYFCQQGNTLPLTFGQGTRLEIKR
notes: humanized; also called 68C8-H2L3; 68C8H2L3
For B1, the Kd in assay [1] turned out to be 1.96 nM. For the same molecule, the koff in [1] is 0.000927 s⁻¹. In [1], the association rate constant (kon) amounted to 473000 M⁻¹ s⁻¹. Besides, the binding result in [2] is given as “no binding (tested: about 10000 ng/mL (log about 4))”; in assay [3] it was “no binding (tested: about 10000 ng/mL (log about 4))”; in assay [4], “no binding (tested: about 10000 ng/mL (log about 4))”; in [5], “no binding (tested: about 10000 ng/mL (log about 4))”; in assay [6], “no binding (tested: about 10000 ng/mL (log about 4))”; in assay [7], “binds”. Moreover, the results for the binding result in assay [8], in assay [9] and in assay [10] were “binds”, “binds” and “no binding”, respectively.

B2: 71H8-VH2VL3 (antibody, human IgG1, kappa, V domains shown)
VH: QVQLVQSGAEVKKPGASVKVSCKVSGYTFTSYWITWVRQRPGKGLEWMGDIYPGSGSTNQNEKFKSRVTMTVDTSTDTAYMELSSLRSEDTAVYYCATLRPYYFVYWGQGTLVTVSS
VL: DIQMTQSPSSLSASVGDRVTITCRASQDISNYLNWYQQKPGKTVKLLIYYTSRLLSGVPSRFSGSGSGTDYTLTISSLQPEDFATYFCQQGNTLPLTFGQGTRLEIKR
notes: humanized; also called 71H8-H2L3; 71H8H2L3
Consider B2, for which, in assay [1], the Kd was determined as 4.57 nM. In addition, the koff in assay [1] worked out at 0.00198 s⁻¹. The kon in assay [1] is 434000 M⁻¹ s⁻¹. Moreover, the binding result in [2] is “no binding (tested: about 10000 ng/mL (log about 4))”; in assay [3], “no binding (tested: about 10000 ng/mL (log about 4))”; in [4], “no binding (tested: about 10000 ng/mL (log about 4))”; in assay [5] it was “no binding (tested: about 10000 ng/mL (log about 4))”; in [6], “no binding (tested: about 10000 ng/mL (log about 4))”; in assay [7], “binds”. The figures for the binding result in assay [8], in assay [9] and in assay [10] were “binds”, “binds” and “no binding”, respectively.
